Some targets named below: TAGLN3; CELF2; SRPR.
Experiment in all cases: BioID2 proximity biotinylation, streptavidin purification, TMT quantitative LC-MS
Common to all, as to conditions: untreated (-K18) neurons, 3 wk; read off a plot

Assay [1] concerns the target NADH:ubiquinone oxidoreductase core subunit S8 (UniProt O00217).
UniProt O00217, sequence (O00217 35-210): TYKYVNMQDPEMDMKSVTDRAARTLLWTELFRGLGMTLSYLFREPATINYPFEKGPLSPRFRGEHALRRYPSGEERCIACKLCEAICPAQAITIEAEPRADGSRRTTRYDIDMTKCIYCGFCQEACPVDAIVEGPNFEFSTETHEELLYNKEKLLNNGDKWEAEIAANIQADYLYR

“0N4R tau[WT]-BioID2 (from UniProt P10636-6) P301L”: the enrichment (log2 abundance ratio) with TAGLN3 was 2; with CELF2, 1.2; in assay [1], 2.5; in the assay with SRPR it was 0.65. The other: log2 abundance ratio (mutant/WT) (log2 abundance ratio) with TAGLN3 was determined as 0.95; with CELF2, 2.1; in assay [1] it was 2; in the assay with SRPR it was 2.

Values taken from paper PMC9978635.
